Assay results reported in US20180111972A1 (Stanford University, published 2018).
Positions count from the first letter of the chain named. In names and notes the source's numbering stands.

B1: PVAM-S (PV R32A), soluble, FLAG and hexahistidine tags (designed binder)
chain: DYKDDDDKIAEPAMIAECHPIETLVDILQEYPDEIGYIFKPSCVPLMRCGGCCNNRNVQCRPTEESNITMQIMRIKPHRGQHIGEMSFLQHNKCRCETVAAGSTSGSGKSSEGKGEVVKFMDVYQRSYCKTRTEVFEISRRLIDATNANFLVWPPCVEVQRCSGCCNHEGLECVPTQVQLRPVQVRKIEFVRKKPIFKKATVTLEDHLACECRPKKDHHHHHH
notes: Secreted from S. cerevisiae YVH10 and treated with Endo Hf
B2: PV6 PDGF/VEGF chimera, soluble, N-terminal FLAG and C-terminal hexahistidine tags (designed binder)
chain: B1 chain with L28F, G36E, R79Q, R95K, A145R, H168D, F190I, E211K
notes: Secreted from S. cerevisiae YVH10 and treated with Endo Hf; also called soluble PV6

Experiments:
[1] = biological target: T1, human VEGFR on human umbilical vein endothelial cells (HUVECs) (human, UniProt P35968 20-1356); experiment: flow cytometry on HUVECs, soluble ligand titrated 3 h at 4 C, anti-FLAG-PE
T1 construct: The phosphorylation blots on these cells detect VEGFR2
Experimental: Cells were incubated with various concentrations of hybrid PDGF/VEGF for 3 hours at 4° C. Binding was detected using an R-PE-conjugated anti-FLAG antibody, then analyzed by flow cytometry.

[2] = biological target: T1, human VEGFR on human umbilical vein …; experiment: flow cytometry on HUVECs, soluble ligand titrated
[3] = biological target: T1, human VEGFR on human umbilical vein …; experiment: cell-based or functional assay

T1 sequence (P35968 20-1356 limits assumed): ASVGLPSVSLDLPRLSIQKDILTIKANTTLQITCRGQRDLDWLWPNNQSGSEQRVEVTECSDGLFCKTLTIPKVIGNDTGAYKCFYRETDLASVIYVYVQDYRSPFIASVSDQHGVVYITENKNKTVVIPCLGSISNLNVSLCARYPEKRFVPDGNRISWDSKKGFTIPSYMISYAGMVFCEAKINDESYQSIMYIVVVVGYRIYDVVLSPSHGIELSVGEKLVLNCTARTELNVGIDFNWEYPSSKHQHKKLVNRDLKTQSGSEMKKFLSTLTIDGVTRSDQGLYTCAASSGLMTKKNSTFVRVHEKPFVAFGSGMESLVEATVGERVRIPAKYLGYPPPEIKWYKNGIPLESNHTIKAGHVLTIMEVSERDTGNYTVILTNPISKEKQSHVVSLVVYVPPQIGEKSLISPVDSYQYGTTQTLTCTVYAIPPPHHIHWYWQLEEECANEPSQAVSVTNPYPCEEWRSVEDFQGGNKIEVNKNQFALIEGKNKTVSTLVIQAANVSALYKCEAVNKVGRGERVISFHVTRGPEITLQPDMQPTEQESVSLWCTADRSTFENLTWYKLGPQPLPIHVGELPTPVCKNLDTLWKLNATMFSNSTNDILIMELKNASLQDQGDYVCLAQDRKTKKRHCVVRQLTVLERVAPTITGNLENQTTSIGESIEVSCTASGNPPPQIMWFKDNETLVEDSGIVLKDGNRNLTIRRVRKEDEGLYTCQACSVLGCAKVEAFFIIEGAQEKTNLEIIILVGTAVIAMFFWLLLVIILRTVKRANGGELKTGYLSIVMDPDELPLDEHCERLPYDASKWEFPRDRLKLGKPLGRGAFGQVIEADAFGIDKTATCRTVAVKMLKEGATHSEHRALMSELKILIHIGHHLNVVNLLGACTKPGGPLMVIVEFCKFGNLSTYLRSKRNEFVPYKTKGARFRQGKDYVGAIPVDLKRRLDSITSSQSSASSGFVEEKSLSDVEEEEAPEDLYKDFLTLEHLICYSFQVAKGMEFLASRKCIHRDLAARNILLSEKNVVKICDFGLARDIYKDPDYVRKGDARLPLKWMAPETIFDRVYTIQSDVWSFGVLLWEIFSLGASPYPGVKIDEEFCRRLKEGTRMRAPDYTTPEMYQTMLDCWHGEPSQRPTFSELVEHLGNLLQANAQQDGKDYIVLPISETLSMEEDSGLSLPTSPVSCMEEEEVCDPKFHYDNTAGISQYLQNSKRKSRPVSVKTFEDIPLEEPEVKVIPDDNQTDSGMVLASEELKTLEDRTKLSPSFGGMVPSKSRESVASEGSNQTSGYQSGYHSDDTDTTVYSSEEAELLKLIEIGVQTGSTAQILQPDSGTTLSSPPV

Binder | Kd [1] [nM] | fold improvement over the bivalent scVEGFwt [2] [fold] | IC50 of inhibition of HUVEC proliferation induced by 0.5 nM VEGF165, alamarBlue [3] [nM]
B1 | 0.2 | 7.5 | –
B2 | – | – | 110
